We go through 1 molecule from patent US20140357845A1 (published 2014).

Assay [1] deals with mini-H3 cluster1 + 2 + 3 + 4 + 5 + 6 + 7-N405D (influenza A virus H3N2, UniProt Q38SQ8 18-566). The assay can be described thus: FACS. On the technique in general: A flow cytometer gives signals particle by particle.
Assay [2] has as its target mini-H3 cluster1 + 2 + 3 + 4 + 5 + 6 + 7-N405A (influenza A virus H3N2, UniProt Q38SQ8 18-566). Put plainly: FACS.

B1: CR9114 (antibody, V domains shown)
VH: QVQLVQSGAEVKKPGSSVKVSCKSSGGTSNNYAISWVRQAPGQGLDWMGGISPIFGSTAYAQKFQGRVTISADIFSNTAYMELNSLTSEDTAVYFCARHGNYYYYSGMDVWGQGTTVTVSS
VL: SYVLTQPPAVSGTPGQRVTISCSGSDSNIGRRSVNWYQQFPGTAPKLLIYSNDQRPSVVPDRFSGSKSGTSASLAISGLQSEDEAEYYCAAWDDSLKGAVFGGGTQLTVL
As for B1, the binding result in assay [1] and in assay [2] was “no binding (tested: 5 microgram/ml)” each time.
